Consider one molecule from patent publication US10494439 (dated 2019).

One experiment deals with Y436T. Put plainly: SPR. Background: SPR reads the build-up and loss of mass on a sensor chip optically.
The target of another experiment is GLD52. Description: SPR.

B1: CD52 peptide 741 (peptide)
peptide: GQNDTSQTSSPS
The Kd is the free concentration of one partner at which half of the binding sites on the other are occupied at equilibrium, for simple one-to-one binding. A higher Kd goes with lower affinity. Take B1: the Kd was 1.95 nM in the experiment with Y436T and 2.44 nM with GLD52.
